System: methylarginine peptide (SEQ ID NO:1)

Substance | demethylation of the peptide, read as gain of anti-RG signal on slot blot (6 hours, 30 C) | demethylation of the peptide, read as loss of anti-mRG signal on slot blot (20 hours, 22.5 C)
TbJmJ1 fusion protein (MBP-JmJ1, Jumonji Fusion Protein 1) | giving a positive reaction with anti-RG in a dose-dependent manner | 
TbJmJ2 fusion protein (MBP-JmJ2, Jumonji Fusion Protein 2) | giving a positive reaction with anti-RG in a dose-dependent manner | indicates a concentration-dependent decrease in the methylation status of the GmRG peptide
